{"source": "patent US20070248599A1", "about": "(priority 2006, published 2007)", "molecules": {"B1": {"name": "PTB domain: PTB domain of X11α (residue 457-751), expressed from pcDNA6 as dominant-negative inhibitor or as GST fusion (protein)", "chain": "DGIIFAANYLGSTQLLSDKTPSKNVRMMQAQEAVSRIKMAQKLAKSRKKAPEGESQPMTEVDLFISTQRIKVLNADTQETMMDHPLRTISYIADIGNIVVLMARRRMPRSNSQENVEASHPSQDGKRQYKMICHVFESEDAQLIAQSIGQAFSVAYQEFLRANGINPEDLSQKEYSDLLNTQDMYNDDLIHFSKSENCKDVFIEKQKGEILGVVIVESGWGSILPTVIIANMMHGGPAEKSGKLNIGDQIMSINGTSLVGLPLSTCQSIIKGLKNQSRVKLNIVRCPPVTTVLIR", "modifications": "left off: a dimerising Fc or GST"}}, "key": {"endogenous X11α/β": {"system": "endogenous X11α/β", "test": "Effect of transfected PTB domain of X11α on ApoE-induced Aβ production", "assay_type": "cell-based, mouse", "conditions": "PTB expression in N2a-APPsw cells, 0.4 μg vector per well (FIG. 9B)", "method": "Cellular Aβ40 production. Neuroblastoma N2a-APPsw cells (from Dr. Riqiang Yan, Lerner Research Institute, Cleveland, Ohio) were cultured in 24-well plates in Dulbecco's Modified Eagle's medium (DMED) containing 10% fetal bovine serum, 100 U/mL penicillin, and 100 μg/mL streptomycin (GibcoBUR) with 80 μg/mL G418 one day before use. Transient transfections were done using FeGENE6 (Roche), fresh Optimum medium (Invitrogen) were supplied 5 h after transfection. Apolipoproteins were added in the fresh medium at 10 μg/mL. Conditioned medium was collected 24 h later. Aβ40 was determined in tripcates using Aβ40 ELISA Kit (Biosource). For studying the effect of PTB domain on Aβ production, N2a-APPsw cells were transfected with (0.4 μg/per well for 24 well plate) of PTB-containing vector before subjected to the above procedure."}, "ApoER2": {"target": "T1, ApoER2 (Mus musculus, UniProt Q924X6)", "T1 construct": "expressed in transfected cells; host or cells: HEK293 (inferred; the pull-down text names HEK293 lysates only for X11-transfected cells)", "T1 sequence (Q924X6 29-996)": "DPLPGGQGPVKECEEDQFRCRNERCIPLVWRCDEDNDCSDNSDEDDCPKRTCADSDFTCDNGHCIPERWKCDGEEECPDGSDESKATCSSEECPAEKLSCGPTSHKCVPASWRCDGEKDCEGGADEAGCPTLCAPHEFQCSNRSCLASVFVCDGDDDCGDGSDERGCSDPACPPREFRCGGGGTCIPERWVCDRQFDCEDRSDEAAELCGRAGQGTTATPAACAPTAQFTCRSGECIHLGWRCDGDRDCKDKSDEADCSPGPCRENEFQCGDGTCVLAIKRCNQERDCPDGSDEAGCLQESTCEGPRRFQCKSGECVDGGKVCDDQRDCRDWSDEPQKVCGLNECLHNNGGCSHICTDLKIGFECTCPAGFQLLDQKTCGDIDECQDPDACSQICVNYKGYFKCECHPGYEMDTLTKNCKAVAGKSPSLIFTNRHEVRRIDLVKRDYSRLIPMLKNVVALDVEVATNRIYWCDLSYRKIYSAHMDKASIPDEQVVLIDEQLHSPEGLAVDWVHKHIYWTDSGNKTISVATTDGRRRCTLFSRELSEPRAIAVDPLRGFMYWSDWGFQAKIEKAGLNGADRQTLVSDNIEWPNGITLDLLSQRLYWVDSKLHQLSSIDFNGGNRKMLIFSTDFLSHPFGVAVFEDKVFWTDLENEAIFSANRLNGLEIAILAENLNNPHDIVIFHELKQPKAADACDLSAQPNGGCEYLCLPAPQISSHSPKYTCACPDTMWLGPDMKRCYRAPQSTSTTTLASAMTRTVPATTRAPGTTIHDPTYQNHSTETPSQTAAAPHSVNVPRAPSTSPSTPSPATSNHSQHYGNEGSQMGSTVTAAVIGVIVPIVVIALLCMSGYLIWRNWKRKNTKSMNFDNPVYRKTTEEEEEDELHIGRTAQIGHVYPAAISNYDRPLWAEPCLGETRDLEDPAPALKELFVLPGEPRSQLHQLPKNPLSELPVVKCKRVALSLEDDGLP", "test": "GST pull-down of ApoER2 by X11α domains", "assay_type": "binding, murine", "conditions": "GST fusions of X11α domains, Western blot (FIG. 8A)", "from_the_text": "cDNA vectors. Vectors for human β-secretase and Swedish mutant of APP were previously described (Lin et al., 2000). Vectors for human X11α, X11β, human LRP, and murine ApoER2 were kindly provided by Dr. Chistopher C J Miller (Kings College London, UK), Dr. Ben Margolis (University of Michigan), Dr. Guojun Bu (Washington University), and Dr. Johannes Nimpf (University of Vienna, Austria) respectively. PCR was used for transferring murine ApoER2 gene into pcDNA6 with V5-His-Tag at the C-terminus and for creating mutants of murine ApoER2 in pcDNA6. PTB domain of X11α (residue 457-751) were amplified by PCR and inserted into pcDNA6. GST constructs of GST-PTB (457-751), GST-PDZ (650-837) of X11α and GST constructs of ApoER2 cytosolic domain GST-ApoC1 (881-996), GST-ApoC2 (881-925), GST-ApoC3 (926-996) and GST-APPc (650-695) were amplified by PCR and inserted into plasmid pGEX6.1 (Pharmacia). All constructs were verified by sequencing. GST fusion proteins were produced in Escherichia coli BL21 strain and purified as described previously (He et al., 2003).\nPull-down assays. For GST pull down, GST fusion proteins were retrieved as previously described (He et al., 2003). The amount of protein recovered with glutathione beads was determined using Bio-Rad Protein Assay and diluted to yield a concentration of 1 mg protein/mL of beads. […]"}}, "data": [{"molecule": "B1", "values": [{"measurement": "ApoE4-induced Aβ increase", "setting": "endogenous X11α/β", "value": "largely abolished"}, {"measurement": "pull down of ApoER2 from the cell lysate", "setting": "ApoER2", "value": "pull down ApoER2"}]}]}
